Experiments:
DestiTA [1] = biological target: T1, DestiTA (Desulfomonile tiedjei, UniProt I4C827, T199N); test: thermal shift assay (ThermoFluor) on apoenzyme, quadratic fit; assay type: binding; settings: 50 mM K-phosphate, pH 8.0; 2 µM apoenzyme incubated with 0.5–500 µM PLP 1 h at 25 °C; covalent (Schiff base to K158)
T1 construct: gene Desti_3054; recombinant in E. coli Rosetta(DE3) pLysS, codon-optimized gene in modified pET-21d; N-terminal (His)6-TEV tag cut with TEV protease; homodimer about 68 kDa by gel filtration

DestiTA [2] = biological target: T2, DestiTA (Desulfomonile tiedjei, UniProt I4C827, T199Q); test: as above; assay type: binding; settings: 50 mM K-phosphate, pH 8.0; 2 µM apoenzyme incubated with 0.5–500 µM PLP 1 h at 25 °C; covalent (Schiff base to K158)
T2 construct: gene Desti_3054; recombinant in E. coli Rosetta(DE3) pLysS, codon-optimized gene in modified pET-21d; N-terminal (His)6-TEV tag cut with TEV protease; homodimer about 68 kDa by gel filtration

DestiTA [3] = biological target: T3, DestiTA (Desulfomonile tiedjei, UniProt I4C827); test: as above; assay type: binding; settings: 50 mM K-phosphate, pH 8.0; 2 µM apoenzyme incubated with 0.5–500 µM PLP 1 h at 25 °C; covalent (Schiff base to K158)
T3 construct: gene Desti_3054; recombinant in E. coli Rosetta(DE3) pLysS, codon-optimized gene in modified pET-21d; N-terminal (His)6-TEV tag cut with TEV protease; homodimer about 68 kDa by gel filtration
T3 sequence (I4C827 1-302): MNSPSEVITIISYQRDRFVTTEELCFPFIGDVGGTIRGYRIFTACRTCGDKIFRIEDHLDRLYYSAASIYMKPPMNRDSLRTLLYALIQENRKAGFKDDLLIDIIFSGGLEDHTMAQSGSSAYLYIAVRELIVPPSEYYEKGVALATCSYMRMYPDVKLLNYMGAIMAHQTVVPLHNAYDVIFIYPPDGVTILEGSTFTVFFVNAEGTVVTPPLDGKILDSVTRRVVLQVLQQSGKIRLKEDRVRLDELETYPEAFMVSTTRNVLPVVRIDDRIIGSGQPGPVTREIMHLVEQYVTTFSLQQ

purified protein [4] = substrate: O=C(O)CCC(=O)C(=O)O; test: purified protein; assay type: biochemical, Desulfomonile tiedjei; settings: co-substrate D-alanine, 50 mM K-phosphate, 30 µM PLP
purified protein [5] = substrate: C[C@@H](N)C(=O)O; test: purified protein; settings: co-substrate α-ketoglutarate, 50 mM K-phosphate, 30 µM PLP
[6] = biological target: the molecule itself; test: SEC; gel filtration of the purified enzyme; molecular weight approximately 68 kDa for the WT (subunit 34.2 kDa); self-association, homodimer
purified protein [7] = substrate: C[C@@H](N)c1ccccc1; test: purified protein; assay type: biochemical, Desulfomonile tiedjei; settings: co-substrate α-ketoglutarate, 50 mM Na-pyrophosphate, pH 9.0, 50 °C, 30 µM PLP

Cc1ncc(COP(=O)(O)O)c(C=O)c1O [PLP]
Kd (DestiTA [1]): 33 ± 2 µM | Kd (DestiTA [2]): 2.2 ± 0.4 µM | Kd (DestiTA [3]): 11 ± 1 µM

B1: DestiTA T43E variant (enzyme, Desulfomonile tiedjei DSM 6799, UniProt I4C827 1-302, looked up)
chain: MNSPSEVITIISYQRDRFVTTEELCFPFIGDVGGTIRGYRIFEACRTCGDKIFRIEDHLDRLYYSAASIYMKPPMNRDSLRTLLYALIQENRKAGFKDDLLIDIIFSGGLEDHTMAQSGSSAYLYIAVRELIVPPSEYYEKGVALATCSYMRMYPDVKLLNYMGAIMAHQTVVPLHNAYDVIFIYPPDGVTILEGSTFTVFFVNAEGTVVTPPLDGKILDSVTRRVVLQVLQQSGKIRLKEDRVRLDELETYPEAFMVSTTRNVLPVVRIDDRIIGSGQPGPVTREIMHLVEQYVTTFSLQQ
notes: DestiTA of Desulfomonile tiedjei DSM 6799, gene Desti_3054, Uniprot ID I4C827_DESTA, with T43E; Made by single-primer site-directed mutagenesis; also called the T43E variant; source: E. coli, purified as described for the WT DestiTA; not shown: His6, N-terminal, cleaved
Km (purified protein [4]; pH 6.5, 40 °C): 2800 ± 900 µM | kcat (purified protein [4]; pH 6.5, 40 °C): 0.15 ± 0.01 s⁻¹ | kcat/Km (purified protein [4]; pH 6.5, 40 °C): 54 ± 30 M⁻¹ s⁻¹ | Km (purified protein [5]; pH 6.5, 40 °C, pH 6.5, 40.0 °C): 2900 ± 800 µM | kcat (purified protein [5]; pH 6.5, 40 °C, pH 6.5, 40.0 °C): 0.15 s⁻¹ | kcat/Km (purified protein [5]; pH 6.5, 40 °C, pH 6.5, 40.0 °C): 52 M⁻¹ s⁻¹ | stoichiometry N [6]: 2

B2: DestiTA T199N variant (enzyme, Desulfomonile tiedjei DSM 6799, UniProt I4C827 1-302, looked up)
chain: MNSPSEVITIISYQRDRFVTTEELCFPFIGDVGGTIRGYRIFTACRTCGDKIFRIEDHLDRLYYSAASIYMKPPMNRDSLRTLLYALIQENRKAGFKDDLLIDIIFSGGLEDHTMAQSGSSAYLYIAVRELIVPPSEYYEKGVALATCSYMRMYPDVKLLNYMGAIMAHQTVVPLHNAYDVIFIYPPDGVTILEGSTFNVFFVNAEGTVVTPPLDGKILDSVTRRVVLQVLQQSGKIRLKEDRVRLDELETYPEAFMVSTTRNVLPVVRIDDRIIGSGQPGPVTREIMHLVEQYVTTFSLQQ
notes: DestiTA of Desulfomonile tiedjei DSM 6799, gene Desti_3054, Uniprot ID I4C827_DESTA, with T199N; Made by single-primer site-directed mutagenesis; also called the T199N variant; source: E. coli, purified as described for the WT DestiTA; not shown: His6, N-terminal, cleaved
Km (purified protein [4]; pH 8.0, 50 °C): 210 ± 30 µM | kcat (purified protein [4]; pH 8.0, 50 °C): 5 ± 0.2 s⁻¹ | kcat/Km (purified protein [4]; pH 8.0, 50 °C): 24000 ± 4000 M⁻¹ s⁻¹ | Km (purified protein [5]; pH 8.0, 50 °C, pH 8.0, 50.0 °C): 520 ± 70 µM | kcat (purified protein [5]; pH 8.0, 50 °C, pH 8.0, 50.0 °C): 5 s⁻¹ | kcat/Km (purified protein [5]; pH 8.0, 50 °C, pH 8.0, 50.0 °C): 10000 ± 2000 M⁻¹ s⁻¹ | stoichiometry N [6]: 2

B3: D-amino acid transaminase from Desulfomonile tiedjei (DestiTA), wild type (enzyme, Desulfomonile tiedjei DSM 6799, UniProt I4C827 1-302, looked up)
chain: MNSPSEVITIISYQRDRFVTTEELCFPFIGDVGGTIRGYRIFTACRTCGDKIFRIEDHLDRLYYSAASIYMKPPMNRDSLRTLLYALIQENRKAGFKDDLLIDIIFSGGLEDHTMAQSGSSAYLYIAVRELIVPPSEYYEKGVALATCSYMRMYPDVKLLNYMGAIMAHQTVVPLHNAYDVIFIYPPDGVTILEGSTFTVFFVNAEGTVVTPPLDGKILDSVTRRVVLQVLQQSGKIRLKEDRVRLDELETYPEAFMVSTTRNVLPVVRIDDRIIGSGQPGPVTREIMHLVEQYVTTFSLQQ
notes: PLP-dependent fold type IV transaminase DestiTA of Desulfomonile tiedjei DSM 6799, gene Desti_3054, Uniprot ID I4C827_DESTA; recombinant DestiTA printed as 302 a.a., 34.2 kDa; codon-optimised synthetic gene in modified pET-21d; N-terminal (His)6-TEV-tag removed with TEV protease; also called WT DestiTA; WT; source: E. coli Rosetta(DE3) pLysS, purified (HisTrap HP, TEV cleavage, second HisTrap HP, …)
Km (purified protein [7]): 17000 ± 2000 µM | kcat (purified protein [7]): 0.7 ± 0.1 s⁻¹ | kcat/Km (purified protein [7]): 70 ± 20 M⁻¹ s⁻¹ | Km (purified protein [4]; pH 8.0, 50 °C): 110 ± 10 µM | kcat (purified protein [4]; pH 8.0, 50 °C): 5.8 ± 0.2 s⁻¹ | kcat/Km (purified protein [4]; pH 8.0, 50 °C): 53000 ± 8000 M⁻¹ s⁻¹ | Km (purified protein [5]; pH 8.0, 50 °C, pH 8.0, 50.0 °C): 500 ± 100 µM | kcat (purified protein [5]; pH 8.0, 50 °C, pH 8.0, 50.0 °C): 5.8 s⁻¹ | kcat/Km (purified protein [5]; pH 8.0, 50 °C, pH 8.0, 50.0 °C): 11600 ± 3000 M⁻¹ s⁻¹ | stoichiometry N [6]: 2

B4: DestiTA T199Q variant (enzyme, Desulfomonile tiedjei DSM 6799, UniProt I4C827 1-302, looked up)
chain: MNSPSEVITIISYQRDRFVTTEELCFPFIGDVGGTIRGYRIFTACRTCGDKIFRIEDHLDRLYYSAASIYMKPPMNRDSLRTLLYALIQENRKAGFKDDLLIDIIFSGGLEDHTMAQSGSSAYLYIAVRELIVPPSEYYEKGVALATCSYMRMYPDVKLLNYMGAIMAHQTVVPLHNAYDVIFIYPPDGVTILEGSTFQVFFVNAEGTVVTPPLDGKILDSVTRRVVLQVLQQSGKIRLKEDRVRLDELETYPEAFMVSTTRNVLPVVRIDDRIIGSGQPGPVTREIMHLVEQYVTTFSLQQ
notes: DestiTA of Desulfomonile tiedjei DSM 6799, gene Desti_3054, Uniprot ID I4C827_DESTA, with T199Q; Made by single-primer site-directed mutagenesis; also called the T199Q variant; source: E. coli, purified as described for the WT DestiTA; not shown: His6, N-terminal, cleaved
Km (purified protein [4]; pH 8.0, 50 °C): 450 ± 70 µM | kcat (purified protein [4]; pH 8.0, 50 °C): 8.4 ± 0.4 s⁻¹ | kcat/Km (purified protein [4]; pH 8.0, 50 °C): 19000 ± 4000 M⁻¹ s⁻¹ | Km (purified protein [5]; pH 8.0, 50 °C, pH 8.0, 50.0 °C): 50000 ± 6000 µM | kcat (purified protein [5]; pH 8.0, 50 °C, pH 8.0, 50.0 °C): 8.4 s⁻¹ | kcat/Km (purified protein [5]; pH 8.0, 50 °C, pH 8.0, 50.0 °C): 170 M⁻¹ s⁻¹ | stoichiometry N [6]: 2

From paper PMC12429042, “Contribution of Second-Shell Residues to PLP-Dependent Transaminase Catalysis: A Case Study of D-Amino Acid Transaminase from Desulfomonile tiedjei” (International Journal of Molecular Sciences, 2025)
